B1: H2-Kb / B13 (parent)
chain 1: AQKVTQTQTSISVMEKTTVTMDCVYETQDSSYFLFWYKQTASGEIVFLIRQDSYKKENATVGHYSLNFQKPKSSIGLIITATQIEDSAVYFCAMREGTGGYKVVFGSGTRLLVSP
chain 2: EAAVTQSPRNKVTVTGGNVTLSCRQTNSHNYMYWYRQDTGHGLRLIHYSYGAGNLQIGDVPDGYKATRTTQEDFFLLLELASPSQTSLYFCASSDGTGHEQYFGPGTRLTVL
chain 3: not shown
chain 4: IQKTPQIQVYSRHPPENGKPNILNCYVTQFHPPHIEIQMLKNGKKIPKVEMSDMSFSKDWSFYILAHTEFTPTETDTYACRVKHDSMAEPKTVYWDRDM
chain 5: SIINFEKL
B2: H2-Kb / E8 (parent)
chain 1: GDSVTQTEGLVTVTEGLPVKLNCTYQTTYLTIAFFWYVQYLNEAPQVLLKSSTDNKRTEHQGFHATLHKSSSSFHLQKSSAQLSDSALYYCALNTNTGKLTFGDGTVLTVKP
chain 2: EAAVTQSPRNKVAVTGGKVTLSCNQTNNHNNMYWYRQDTGHGLRLIHYSYGAGSTEKGDIPDGYKASRPSQENFSLILELATPSQTSVYFCASGDWGAGTGQLYFGEGSKLTVL
chain 3: not shown
chain 4: B1 chain 4
chain 5: SIINFEKL

Variants of: B1
Experiment: % of reporter cells activated (NFAT-GFP), raw
Conditions: with B13; scale: % of reporter cells activated
Further: test concentration or dose not given here.

Ratio to parent: each site, then its substitutions
chain 5 F5: C 0.132, E 0.0684, M 0.316, L 0.117, D 0.179, P 0.144, S 0.0431, K 0.15, Q 0.0482, G 0.0418, I 0.0887, Y 0.712, N 0.0634, A 0.131, R 0.0811

Variants of: B2
Experiment: % of reporter cells activated (NFAT-GFP), raw
Conditions: with E8; scale: % of reporter cells activated

Ratio to parent of substitutions, site by site:
chain 5 K7: E 0.415, P 0.0848, Q 0.256, G 0.377, Y 0.121, H 0.14, V 0.175, D 0.288, M 0.239, F 0.14, T 0.223, N 0.18, A 0.522, W 0.235, S 0.491, R 1.06, C 0.196, I 0.132, L 0.119
chain 5 I2: G 0.418, Q 0.307, P 1.66, H 0.943, W 3.66, Y 0.205, K 0.571, C 1.31, F 0.604, D 1.78, T 2.56, N 0.771, E 0.694, S 1.54, A 1.19, R 0.251, V 2.6, L 2.58, M 0.834
chain 5 S1: V 0.0822, P 0.0215, R 0.0279, N 0.0146, C 0.0291, Q 0.0368, T 0.0377, E 0.252, I 0.0565, K 0.00805, D 1.87, W 0.0202, A 0.897, M 0.0169, Y 0.0177, G 0.205, L 0.0264, F 0.0608, H 0.0497
chain 5 L8: G 0.949, N 0.755, P 0.187, D 0.154, W 0.344, Y 1.23, A 0.534, T 0.444, E 0.264, M 0.838, K 0.228, C 0.214, H 0.898, R 0.331, I 0.998, V 0.473, S 0.214, F 0.826, Q 0.38
chain 5 E6: A 0.159, Y 0.00591, D 0.546, F 0.018, C 0.0282, W 0.0496, V 0, P 0.169, N 0.03, K 0.03, M 0.0317, G 0.193, Q 0.115, T 0.0257, H 0.0243, S 0.0471, R 0.0462, I 0.0166, L 0.0214
chain 5 F5: Q 0.682, M 1.04, W 2.35, E 0.539, L 0.68, R 0.77, T 0.892, D 0.0471, A 1.63, Y 1.09, G 1.93, S 1.09, C 1.41, H 1.61, I 0.735, K 0.557, V 3.19, P 1.03, N 1.13
chain 5 N4: V 0.637, Y 0.0136, P 2.41, G 0.104, F 0.0343, T 0.394, R 0.0317, K 0.0265, E 0.0223, Q 0.0151, I 0.11, S 0.0377, D 0.0157, H 0.0899, L 0.0142, W 1.86, M 0.0197, A 0.402, C 0.0617
chain 5 I3: G 0.241, H 1.57, R 0.605, V 0.61, M 1.45, C 0.982, Y 3.36, F 2.52, W 1.9, S 2.66, P 0.735, Q 0.475, T 0.273, E 0.331, N 0.231, A 0.244, D 0.0231, K 0.147, L 1.93

Reference: publication PMC11480844
